Assay in all cases: cell-based or functional assay
The target of assay [1] is human CGRP receptor (human CRLR / human RAMP1 heterodimer) (human, UniProt Q16602 23-461; O60894 27-148).
The target of a further assay is human CGRP receptor (human, UniProt Q16602 23-461; O60894 27-148).
The next assay has as its target T1, human PAC1 receptor (human, UniProt P41586 24-468).
T1 sequence: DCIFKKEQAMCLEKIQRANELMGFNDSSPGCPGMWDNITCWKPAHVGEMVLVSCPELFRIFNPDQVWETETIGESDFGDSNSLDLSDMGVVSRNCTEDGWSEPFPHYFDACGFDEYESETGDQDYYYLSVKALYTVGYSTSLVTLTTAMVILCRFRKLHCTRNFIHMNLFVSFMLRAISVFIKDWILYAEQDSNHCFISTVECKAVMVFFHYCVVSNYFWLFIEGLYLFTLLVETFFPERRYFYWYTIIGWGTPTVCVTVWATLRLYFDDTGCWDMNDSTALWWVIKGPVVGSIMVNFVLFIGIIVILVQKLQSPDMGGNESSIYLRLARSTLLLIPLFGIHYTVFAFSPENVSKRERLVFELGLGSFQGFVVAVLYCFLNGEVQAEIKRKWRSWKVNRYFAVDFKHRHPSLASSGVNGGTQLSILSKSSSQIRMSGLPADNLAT

Where a chain is given by its changes, count along the chain named.

Chain of human CGRP receptor (human CRLR / human RAMP1 heterodimer) (Q16602 23-461 limits assumed, chain 1 of 2): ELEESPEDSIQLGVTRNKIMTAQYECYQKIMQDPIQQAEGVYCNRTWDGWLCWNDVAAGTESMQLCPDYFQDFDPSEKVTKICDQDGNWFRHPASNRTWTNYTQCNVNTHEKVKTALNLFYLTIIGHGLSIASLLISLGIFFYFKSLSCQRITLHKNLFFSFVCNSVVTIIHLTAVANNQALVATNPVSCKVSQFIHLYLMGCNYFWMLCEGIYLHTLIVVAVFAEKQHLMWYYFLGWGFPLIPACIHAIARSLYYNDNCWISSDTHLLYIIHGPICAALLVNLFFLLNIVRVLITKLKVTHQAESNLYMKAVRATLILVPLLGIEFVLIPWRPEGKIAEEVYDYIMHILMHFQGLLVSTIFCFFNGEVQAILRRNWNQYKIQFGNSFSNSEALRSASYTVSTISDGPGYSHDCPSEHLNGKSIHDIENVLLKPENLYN
Chain of human CGRP receptor (human CRLR / human RAMP1 heterodimer) (O60894 27-148 limits assumed, chain 2 of 2): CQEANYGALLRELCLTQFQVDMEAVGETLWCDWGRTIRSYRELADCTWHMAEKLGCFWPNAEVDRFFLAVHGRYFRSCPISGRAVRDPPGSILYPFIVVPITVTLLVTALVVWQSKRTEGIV
Chain of human CGRP receptor (Q16602 23-461 limits assumed, chain 1 of 2): as the sequence (Q16602 23-461 limits assumed, chain 1 of 2) above
Chain of human CGRP receptor (O60894 27-148 limits assumed, chain 2 of 2): as the sequence (O60894 27-148 limits assumed, chain 2 of 2) above

B1: anti-CGRP receptor variant antibody 10, bivalent monoclonal antibody (antibody, human IgG1, lambda, N297G, V domains shown)
VH: QVQLVESGGGVVQPGRSLRLSCAASGFFFGSYGMHWVRQAPGKGLEWVAVISFAGEIEHYVDSVKGRFTISRDNSKNTLFLQMNSLRAEDTAVYYCARDRLNYYESSGYYHYKYYGMAVWGQGTTVTVSS
VL: QSVLTQPPSVSAAPGQKVTISCSGSSSNIGNNYVSWYQQLPGTAPKLLIYDNNKRPSGIPDRFSGSKSGTSATLGITGLQTGDEADYYCGTWDSRLSAVVFGGGTKLTVLG
For the molecule B1, in assay [1], the “Average IC50 (nM), cell-based cAMP assay, SK-N-MC cells, 3 nM human α-CGRP” value (from here on “Average IC50 (nM), cell-based cAMP assay”) was determined as 0.56 nM; the “Fold-improvement over 4E4 Ab (IC50, cAMP assay)” value amounted to 1 fold; the “Run 1 IC50 (nM), cell-based cAMP assay, SK-N-MC cells, 3 nM human α-CGRP” value (shortened to “Run 1 IC50 (nM), cell-based cAMP assay”) came to 0.43 nM; the “Run 2 IC50 (nM), cell-based cAMP assay, SK-N-MC cells, 3 nM human α-CGRP” value (from here on “Run 2 IC50 (nM), cell-based cAMP assay”) worked out at 0.68 nM.

B2: anti-CGRP receptor variant antibody 06, bivalent monoclonal antibody (antibody, human IgG1, lambda, N297G, V domains shown)
VH: B1 VH with F28T, G30S, Y32F, A54D, E56S, E58K, H59Y, Y60S
VL: B1 VL with S26Y, N31R, N32K, Y33S
With B2, in assay [1], the “Average IC50 (nM), cell-based cAMP assay” value was 0.15 nM; the “Fold-improvement over 4E4 Ab (IC50, cAMP assay)” value came out at 3.7 fold; the “Run 1 IC50 (nM), cell-based cAMP assay” value came out at 0.14 nM; the “Run 2 IC50 (nM), cell-based cAMP assay” value came out at 0.15 nM.

B3: anti-CGRP receptor variant antibody 09, bivalent monoclonal antibody (antibody, human IgG1, lambda, N297G, V domains shown)
VH: B1 VH with F28T, G30S, Y32F, E58D, H59Y
VL: B1 VL
Consider B3, for which, in assay [1], the “Average IC50 (nM), cell-based cAMP assay” value turned out to be 0.86 nM; the “Fold-improvement over 4E4 Ab (IC50, cAMP assay)” value turned out to be 0.6 fold; the “Run 1 IC50 (nM), cell-based cAMP assay” value turned out to be 0.73 nM; the “Run 2 IC50 (nM), cell-based cAMP assay” value turned out to be 1 nM.

B4: anti-CGRP receptor variant antibody 01, bivalent monoclonal antibody (antibody, human IgG1, lambda, N297G, V domains shown)
VH: B1 VH with F28T, G30S, Y32F, A54D, E56S, E58K, H59Y, Y60S
VL: B1 VL with S26Y, N31R, N32Y, Y33S
B4: in assay [1], the “Average IC50 (nM), cell-based cAMP assay” value was 0.14 nM; the “Fold-improvement over 4E4 Ab (IC50, cAMP assay)” value turned out to be 3.9 fold; the “Run 1 IC50 (nM), cell-based cAMP assay” value was 0.13 nM; the “Run 2 IC50 (nM), cell-based cAMP assay” value turned out to be 0.14 nM.

B5: anti-CGRP receptor variant antibody 07, bivalent monoclonal antibody (antibody, human IgG1, lambda, N297G, V domains shown)
VH: B1 VH with F28Y, G30M, S31T, A54D, E56S, E58K, H59Y, Y60S
VL: B1 VL
B5: in assay [1], the “Average IC50 (nM), cell-based cAMP assay” value amounted to 0.29 nM; the “Fold-improvement over 4E4 Ab (IC50, cAMP assay)” value turned out to be 1.9 fold; the “Run 1 IC50 (nM), cell-based cAMP assay” value stood at 0.18 nM; the “Run 2 IC50 (nM), cell-based cAMP assay” value is 0.39 nM.

B6: iPS:454739 (bispecific antibody, human IgG1, kappa, lambda, N297G)
light 1: QSVLTQPPSVSAAPGQKVTISCSGSYSNIGRYSVSWYQQLPGTAPKLLIYDNNKRPSGIPDRFSGSKSGTSATLGITGLQTGDEADYYCGTWDSRLSAVVFGGGTKLTVLGQPKAAPSVTLFPPSSEELQANKATLVCLISDFYPGAVTVAWKADSSPVKAGVETTTPSKQSNNKYAAKSYLSLTPEQWKSHRSYSCQVTHEGSTVEKTVAPTECS
heavy 1: QVQLVESGGGVVQPGRSLRLSCAASGFTFSSFGMHWVRQAPGKGLEWVAVISFDGSIKYSVDSVKGRFTISRDNSKNTLFLQMNSLRAEDTAVYYCARDRLNYYESSGYYHYKYYGMAVWGQGTTVTVSSASTKGPSVFPLAPSSKSTSGGTAALGCLVKDYFPEPVTVSWNSGALTSGVHTFPAVLQSSGLYSLESVVTVPSSSLGTQTYICNVNHKPSNTKVDKKVEPKSCDKTHTCPPCPAPELLGGPSVFLFPPKPKDTLMISRTPEVTCVVVDVSHEDPEVKFNWYVDGVEVHNAKTKPCEEQYGSTYRCVSVLTVLHQDWLNGKEYKCKVSNKALPAPIEKTISKAKGQPREPQVYTLPPSRKKMTKNQVSLTCLVKGFYPSDIAVEWESNGQPENNYKTTPPVLKSDGSFFLYSKLTVDKSRWQQGNVFSCSVMHEALHNHYTQKSLSLSPGK
light 2: EIVLTQSPATLSLSPGERATLSCRASKSVGWSLHWYQQKPGQAPRLLIKYASQSLSGIPARFSGSGSGTDFTLTISSLEPEDFAVYYCHQSSRLPFTFGPGTKVDIKRTVAAPSVFIFPPSDEQLKSGTASVVCLLNNFYPREAKVQWKVDNALQSGNSQESVTEQDSKDSTYSLESTLTLSKADYEKHKVYACEVTHQGLSSPVTKSFNRGEC
heavy 2: not shown
Turning to B6, in the assay with human CGRP receptor, the “Fold-improvement over 4E4 Ab” value is 0.9 fold and half-maximal inhibition (IC50) required 0.57 nM. Moreover, in the assay with human PAC1 receptor, the “Fold-improvement over 29G4v22 Ab” value stood at 3.5 fold and the “IC50” value was found to be 1.92 nM.
